A short description of this data set: label from the status in PepcDB records.

In the case of “MKLICSKANLLKGVNIVSKAVPTRTTMAILECILIDASANEIKLMANDMELGIETIIDGTIEERGIIALDAKIFSEIVRKLPDNDVTIETDASFKTVISCEKAKFNIIGKSGDDFSYIPYVERNESIVLSQFTLKEVIRQTIFSIADNDNNKLMTGELFEIEENKLRVVSLDGHRISIRYIEMKNHYDSKKVVVPGKTLQEISKIIPGSADEDVVIYITNNHIVFEFENTTVVSRLIEGEYFKIDQMLSSDYDTKVRINKRELLDCIDRATLLVKEGDKKPIIMNITDGNMELRINSFIGSMNEDIDIDKDGKDIMIGFNPKFFIDALRVIDEEEVNLYMVNPKAPCFIKDDEGKFIYLILPVNFNTAAN”, the protein production entry is “not failed”.

Regarding “MKLILAPMEGLTDPIMRDVLTHVGSFDWCVTEFIRVTDSVLPDHVYYTYCPELKNNGKTAAGTPVHVQFLGNNPDMLAANAEKVVALGAPAIDLNFGCPAKTVNRHRGGSILLDEPDVVHLLVKAVRDAVPAHIPVSAKMRLGYLDENHTMDNAYAIQEAGANWLTVHARTKADGYTPPAYWEKIQPIKDALSINVIANGEIWTNQDAKACQQQSGCEDLMIGRGAVTTPDLTLCIRQNVDEALMNWAALIELQQRFLNGEYKTEIGMIGRYKQWLGMMTKAYPEAKQLWDEIKRIKNLDEILLKLGRSS”, the protein production result is “failed”.

“MKLKSLLLRYYPPGIMLEYEKHGELKTKSIDLLDLGPSTDVSALVEEIQKAEPLLTASRTEQVKLLIQRLQEKLGQNSNHTFYLFKVLKAHILPLTNVALNKSGSCFITGSYDRTCKLWDSASGEELNTLEGHRNVVYAIAFNNPYGDKIATGSFDKTCKLWSVETGKCYHTFRGHTAEIVCLSFNPQSTLVATGSMDTTAKLWDIQNGEEVYTLRGHSAEIISLSFNTSGDRIITGSFDHTVVVWDADTGRKVNILIGHCAEISSASFNWDCSLILTGSMDKTCKLWDATNGKCVATLTGHDDEILDSCFDYTGKLIATASADDGVSLCRPGRSAVARSWLTATCASQVQAILLPQPPELCHVLGNHV”: the protein production result is “failed”.

In the case of “MKLKTFLIVGCLGGLFTLSSCTAPTNVKDYSAYVNPFIGTGGHGHTFPGAVVPHGMIQPSPDTRIDGWDACSGYYYADSTINGFSHTHVSGTGCCDYGDVLLMPTVGKQQYRTTDPQSQRLAYASSFSHKNEIAEPGYYSVFLDTYQVKAEISSTKRGAIHRYTFPENTESGFIIDLDYSLQRQTNSEMEIEVISDTEICGHKKTTYWAFDQYINFYAKFSKPFSYTLVTDSITMDNGKRLPVCKALLHFNTSKDEQVLVKVGVSAVDIAGARKNVESEIPGWDFEKVRKDARTAWNEYLSKIDITTSDKEDKAIFYTALYHTGISPNLFTDADGRYLGMDLEVHQGDTLNPIYTVFSLWDTFRALHPLMTIIDPDLNNHFINSLIKKHQEGGIYPMWDLASNYTGTMIGYHAVPVIVDAYMKGYRNFDTKEAYKACLRAAEYDTTGIKCPDLVLPHLMPKAKYYKNAIGYIPCDRENESVAKALEYAYDDWCISIFAEAMSDFESKAKYERFAKAYEFYFDKSIRFMRGLDSKGEWRTPFNPRASTHRSDDYCEGTAWQWTWFVPHDVEGLVNLMGGEDAFVQKLDSLFSADSSLEGETTSSDISGLIGQYAHGNEPSHHVIHLYNYVNHPWRTQELVDSVYRSQYANSIEGLSGNEDCGQMSAWYILNSMGFYQVCPGKPVYSIGRPAFDKAVINLPEGKTFSIVVKNNGKKNKYIESVLLNGKALNIPFFNHQDIANGGTMEIKMTDHPTKWGVLSPALSSKEEE”, the protein production result was “failed”.

As to “MKLKYCHYAYDDEGYVIHMLTSNERTFFTNAYIIETKNSIVVVDTLMVNSDAILLRQYMDNINKPLIAVIITHGHPDHYNGTEIITGFKEVPIISTKGIRDCIQDTVDSKEVKWKPYFGQDWPEHKILPNQLVIDSEVVNLDGLDYSFRDLGAAESSSDLFFTLGEKRSVIFVGDVVFNNMHGFMNDGNSAQWLKVLQKLLTEIADVKLLFTGHGDPGDTHQLVQRQIDYISHYRSNLLAIIRGNQLEHHHHHH”, the protein production result is “failed”.

Take “MKLLIKKITYIIFILCSYCSYGEAKIQLPSILGNGMVLQQKSEVRLWGKATPNKKVTIYTSWNAQQQEVNSNKKGDWIVTVTTPEAGGPYTIRISDGEELLLDDVLIGEVWLCSGQSNMEMPVKGFRGQPAAESQNTIVNVNPNRSLRLFTVQRAYSSILEEDVTGQWEKNTPKSVSTFSAVAYYYGDQLQKVLGIPVGLIHASWSGSSIEPWISKENLLQFPEVDLTPAENPQLKYANGTPTVLYNAMIKPLENYNIKGMIWYQGESNSARPEQYQRLFAVWAKQNRALFRSKDLPIYYTEIAPVASPVDRPFQRAIFREAQLESMHEVSNTGMAFTNDLGSEKFIHAPKKREIGQRLAYWALAKTYQLEGFEYSGPIHRSYMKNGKIIEILFDHADDGLNPENEPLVGFEIASEDSIFYPANAEIINGTSRVKVWSDKVAQPVYVRYAFRNFLRGNLVNNAGLPAAPFRMDLRKMDFQNPEKLGWARVTTFGKLPEYISVYHSPEWIESTRTNAYIAVVDTKKGGSLDVGGADSGVKTPIEFYQSEKRKPSIVLNGGYFANGRTVSLICKNGKILSDNISVVNRLLEGKKTAYYPTRSVFSLYTDGTYHVDWIYKSAQQTYAYDMPALNSSTRPPLSVPSKGFPKGAKVWTAEMGIGAGPILIKDGTIRNSWVEELLDVASGINPQTCQPRSAVGVTQDGKLILFVCEGREQTPDIPGMTLAQLARLMRSFGCVDALNLDGGGSSCMLINGKETIKPCNKYHHQRPVATVLFAR”: the protein production result is “failed”.

As to “MKLLLTRPEGKNAAMASALDALAIPYLVEPLLSVEAAAVTQAQLDELSRADILIFISTSAVSFATPWLKDQWPKATYYAVGDATADALALQGITAERSPADSQATEGLLTLPSLEQVSGKQIVIVRGKGGREAMADGLRLRGANVSYLEVYQRACPPLDAPASVSRWQSFGIDTIVVTSGEVLENLINLVPKDSFAWLRDCHIIVPSARVETQARKKGLRRVTNAGAANQAAVLDALGM”, the protein production result is listed as “not failed”.

“MKLNISAQSLNYTKYDNVIPSRDAILGLFDKVKSYLSYEQISHSSGLNDEPEKDALKKRLRAMERDGQLIFTRRKGYKRVDQSSLVTGKISIHVDGFGFLTYDDNEKDLFLPKHQLSHVFDGDIILVLKGHTQHQGRSNHRFIKIVERKTTHIVGLLKRKGSKLYLLPENSKLTQTIYVTPNELIAKNVGKLVHCKINTYPDYRQPTTVEVNEVLGRPGEAGIEVKLALRRHGINDKWDKDVLDAASAFGSQVEEKDKTSRVDYRDLPFVTIDGDDAKDFDDAVYGYQMDNGQWKLFVAIADVSHYVKPNDHLDLEAQSRATSVYFPGCVVPMLPESLSNGLCSLNPNEDRLVMVCEMTFDDEGNMLDSEFSEGIIHSHARLTYDDANRIIMQSSAKTTYQSNNPKNNIAQYLVNLHRLYLNLSGQRKVRGAIDFDTQELAFKLNNKKKIASIVPVVRNDAHRMIEEFMLCANVATAQFLELNKIPSLYRVHSGPQMKKLTSLRMLLAEKGLTLAGGDKPTSHDYNALLDQVRDLDECDIIRTLLLRSQSQAEYSPKNLGHFGLAYDAYAHFTSPIRRYPDLLIHRAIRAKLREKTTGKLRSLLMKLKPIRQLAGISNSYPYDTKEIEQLSVHCSHQSRQADEVSREVESALKCHYMKPFIGRNFMGSVSGVTHFGVFVELEENRIEGLIPLSSFQNGDFEFDAIKQKISSQTTTFTLGTQVNIIVKEIDSKQRKIIFNFA”: the protein production result is “failed”.

Turning to “MKLQTTIQHEPKDGSGFDRGLREFFEYRDTGVNEATGGMFGAHVIRAIPGKEAKPTWHTHTVGFQLFYVLRGWVEFEYEDIGAVMLEAGGSAFQPPGVRHRELRHSDDLEVLEIVSPAGFATSVVDLEEARKP”, the protein production result is “not failed”.

Regarding “MKLRKRRLCAATGVVLGALTALAALPPAAVASPHPGGHPPTARRALPLGPAGLPERRTTTTLQPGVTLTRIVRGNAEDPALHWTVEVSIPGGDTSPDPDAPPTALKDRASADELAAELRRDGFEARVEEVTTPATADYRGGTLGWRVRIGTFDSQTAATAERTRLRAAGYSGSAVYTGWDGAATDRGPWHVDVLTIDPRTFRGTLDASYGPDLENRETTSALAASAAATAAVNAGFFVLDPRAGAPGDPAGVGVYDGRLLSEPVAGRPALVVHDDGRRTEIARLTWQGRIATRAASLPLNGVNRVPGLIRNCGGSAGDTPTSLPLHDVTCTNPDELVAFTPDYGGRTPGGEGMEAVLDAHERVVELRSPRGGTIPRGGSSVQATGERVADLTATARVGERLRVSATLLDDRGRRMSTSPGTDIVNAGPELVRDGRVHVTPATDGMVHPGDPSWYYGWVHKRNPRTVAGVDAAGRTVLVTADGRSTDSLGLSIGESAEVARSLGLRDAVNLDGGGSTTMVAEGAVLNSPSDAAGERPVGDALLILPHRHRTRS”, the protein production entry is given as “failed”.

As to “MKLSDFIKTEDFKKEKHVPVIEAPEKVKKDEKVQIVVTVGKEIPHPNTTEHHIRWIKVFFQPDGDPYVYEVGRYEFNAHGESVQGPNIGAVYTEPTVTTVVKLNRSGTIIALSYCNIHGLWESSQKITVEE”, the protein production entry is recorded as “not failed”.

Consider “MKLSMQMLKKSSLIPSDLTDTLLLVGSGWDDYSFKTSFTVMHFGPDAKKTELGTTKIGYKDQQHGWTSEKFSTKNISLSDDFFSLGQDVDFYRKLQGGLSADAALAVLQALKDVIADPLRLEDVKNEQVFRESLMRNVSWSVIRDQFKRVLAGKPELTSFHFSYQTNGDEQRAGVDVSFKVTPHSLPSTNVHVLIGRNGVGKTTILNDMVETILSDTTGRPHCGKFLIYDSLGSEPMPTDYFSSVVSVSFSAFDPFLFPADQPDRSKGVAYFYVGMQSPGEGPGKRPPKTTEALTEDFITSLESCFSQESKRQRWVAAIKRLESDSNFEDMDLAHLNELPTDEAIVKAHRIFSRMSSGHSIVLLTLTKLVEAVEEKTLVLMDEPESHLHPPLLSAFTRAISDLLQDRNGVAIIATHSPVVVQEAPGSCVWKLTRLRAEGRADRPERETFGENAGVLTREIFGLEVNKSGYHEVLQEAVNRGGTFESILADYQEQLGFEAQAILRKMVASRRES”, for which the protein production result is “failed”.

Turning to “MKLSSEKLPKNPFSLSQYAAKQQKFFQWKKEKPDYYLHANLVDTALQFLKERIRRGDAMAYFLRGQLYFEEGWYEEALAQFEEIQEKDHQAIYQLGVMYYDGLGTIANAEKGVNYMRKILDSSCPQTMHLKFAAAYNLGRAYFEGKGVKRSDEEAERLWLLAADNGNPKASVKAQSILGLFYSMKEPKELEKAFFWHSEACGNGSLESQGALGLMYFYGQGIRQDTDAALHCLREAAERGNVYAQGTLVEYYYKMKFFTKCVSFSKRIADYDEVHDIPMIAHVTDCLPEFIIKGMAMAAFYHGRCLQLGLGIMKDEESAKHYYSKACRLNPTLADELHSLLIHQRI”, the protein production entry is “failed”.

In the case of “MKLTHSFIKQQARLGLNFFRYLLARMNHDRVNVNAGYLAYITLLSMVPMLTVLLSILSSFALFANAGEVIQDFVITHFVPAAGEVVKTALIEFVANTGKMTAVGGAFLFVAAIMLISNIDKNLNYIWRVQQKRRAVFSFSMYWMILTLGPILVGASIAATSYITSLKILDNEALSGVYNLFLRWLPFVLSYCAFVGLYLLVPNKKVHWQHAMLGALIAAILFELSKKGFAAYITQFPSYQLIYGALAAIPILFVWVYLCWLIVLVGAEVTAALGEREHWSDSQDMLHFAPLPKNEKE”, the protein production entry was “not failed”.

“MKLVVCSESDTAGQNIKDNLLTFADFEEKDVGEFKLYLSDEFYIAETKERLIYADHIDEKLAKYIDFEEILFASRHSSKDGRKIFTVHVSGNVGTADFGGKPYSLAKPSPQTMKNYVLALRERLDRKPEFEFTMEVTHHGPSEISKPSAFYEIGSTEEEWKDREAAEVVAEAMLDAIRAEKMDWNVAVGVGGTHYAPRQTEIMLTTTFTFGHNFAKYTFEHLTAEFLVKAVKLSEAEYIIIDEKSVNSAVKKIVNEAAEVAGVEVLKSKKVKKDFRLV”: the protein production entry is given as “not failed”.

For “MKLWENGTFYQMTAEGEQVSAVLTKNGQIHAVGEVADLKKQYATEIDETIDLEGKVVFPGFVDAHIHLLWYGQALERLNLNQTTTKKEALALEHHHHHH”, the protein production entry was “not failed”.

In the case of “MKMDTGALTFQQKIYWLVKQIPLGRVATYGQIAALCGWPRHGRYVGYALYRVAPNSDIPWHRVVNAQGKISYAPQRRGTDELQRWRLAAEGIIFTAGDRINLRRYQWQPPATVYQQLIWPEGAATDSAKAKVG”, the protein production entry was “failed”.

The record behind these values is a protein production outcome set (Wang et al. 2014).
